# Entries after “also recorded” stand apart in the source; their conditions may differ.
# B1: ciliary neurotrophic factor (protein, UniProt P26441 1-200, looked up)
# Ciliary neurotrophic factor: MAFTEHSPLTPHRRDLCSRSIWLARKIRSDLTALTESYVKHQGLNKNINLDSADGMPVASTDQWSELTEAERLQENLQAYRTFHVLLARLLEDQQVHFTPTEGDFHQAIHTLLLQVAAFAYQIEELMILLEYKIPRNEADGMPINVGDGGLFEKKLWGLKVLQELSQWTVRSIHDLRFISSHQTGIPARGSHYIANNKKM
# Test system: injured optic nerve axons
# Assay: optic nerve crush injury, axon regeneration assessed by CTB anterograde tracing
# Assay type: in vivo, mice
# Details: intravitreal 1 μl CNTF (1 μg/μl) immediately before and 3 days after injury
# Method: We applied optic nerve crush injury to assess axon growth ability in adult CNS in different conditional floxed mice (Park et al., 2008 Science 322, 963-966). Intravitreal application of recombinant adeno-associated viruses expressing Cre (AAVCre) results in Cre-dependent reporter expression in more than 90% of RGCs. Regeneration was assessed in the injured optic nerve axons by using cholera toxin beta subunit (CTB), an anterograde tracer, which was injected into the vitreous of the retina following optic nerve injury two days prior to histological analyses. Neuronal survival was assessed using whole-mount staining of the retinal tissue by immunostaining with an anti-β-III tubulin antibody, a commonly used marker of RGCs.
# We intravitreously injected 1 μl CNTF (1 μg/μl) immediately before injury and 3 days after injury (PBS injection was used as control).
molecule,measurement,setting,value
B1,numbers and lengths of regenerating axons,SOCS3 deleted mice,dramatic increase; also recorded: further enhances
same,axon regeneration,control mice (SOCS3f/f with AAV-GFP),limited degree of axon regeneration

# From US20110124706A1, “SOCS3 Inhibition Promotes CNS Neuron Regeneration” (priority 2009, published 2011)
